Experimental data taken from article PMC2646509.

Biological target: T1, PrfA L140F L140F (Listeria monocytogenes (NF-L1166)) (UniProt P22262)
T1 sequence: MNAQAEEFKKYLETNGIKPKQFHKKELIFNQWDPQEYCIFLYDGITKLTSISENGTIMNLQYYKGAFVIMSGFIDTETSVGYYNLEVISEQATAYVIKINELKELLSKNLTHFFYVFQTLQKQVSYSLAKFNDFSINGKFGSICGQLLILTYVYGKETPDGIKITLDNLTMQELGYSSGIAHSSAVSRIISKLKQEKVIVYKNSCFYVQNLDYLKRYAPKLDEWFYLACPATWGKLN
Assay: EMSA

Sequence: GATGCTTCTAAAAAAGTTGCTGAAGCTTGGGAAGCAGTTGGGGTTAACTGATTAACAAATGTTAGAGAAAAATTAATTCTCCAAGTGATATTCTTAAAATAATTCATGAATA (double strand) [actA promoter]
- binding: binds
